We go through three molecules from article PMC1802081 (BMC Structural Biology, 2007).

Substitutions are numbered along the chain they refer to.

As usually defined, the stoichiometry N is a count of units in the complex or per binding partner.

B1: activin A (Sf9 cells) (ligand, UniProt P08476 311-426, looked up)
chain: GLECDGKVNICCKKQFFVSFKDIGWNDWIIAPSGYHANYCEGECPSHIAGTSGSSLSFHSTVINHYRMRGHSPFANLKSCCVPTKLRPMSMLYYDDGQNIIKKDIQNMIVEECGCS
modifications: biotin (biotinylated for the biosensor; site not stated)
notes: activin A (dimer of inhibin beta A chains), mature ligand; also called Act-A; source: Sf9 cells [59]
B2: ActR-IIB receptor ectodomain (ActR-IIBECD) (receptor, UniProt P27040 19-137, looked up)
chain: SGRGEAETRECIYYNANWELERTNQSGLERCEGEQDKRLHCYASWRNSSGTIELVKKGCWLDDFNCYDRQECVATEENPQVYFCCCEGNFCNERFTHLPEPGGPEVTYEPPPTAPTLLT
notes: mouse is recalled from the PDB entry 2H62 and should be checked there; also called activin type IIB receptor ectodomain; source: E. coli OrigamiB (DE3), purified (Ni2+-IMAC, thrombin cleavage, anion exchange, reversed phase HPLC)
B3: ActR-IIBECD wildtype (activin type IIB receptor ectodomain) (receptor, UniProt P27040 19-137, looked up)
chain: B2 chain
notes: source: E. coli OrigamiB (DE3), purified (Ni2+-IMAC, thrombin cleavage, anion exchange, RP-HPLC)

What all share (conditions): both partners purified
Experiment [1] addresses T1, ActR-II receptor ectodomain (UniProt P27037 20-135).
T1 construct: activin receptor type II (ActR-II), extracellular domain; also called ActR-IIECD; source: expressed and purified as described earlier [28]
In words: SPR; BIACORE 2000; biotinylated ligand on a streptavidin-modified CM5 chip (about 200 RU); receptor ectodomain as analyte at 1, 2, 3, 5, 10, 20 and 50 uM; HBS500 (10 mM HEPES pH 7.4, 500 mM NaCl, 3.4 mM EDTA, 0.005% P20); apparent KD from the dose dependence of equilibrium binding.

Experiment [2] has as its target B3. Described as above.
The target of experiment [3] is T1, ActR-II receptor ectodomain. Described as above. The source holds these as a separate data set.
Experiment [4] deals with T2, BMPR-II receptor ectodomain (UniProt Q13873 27-150).
T2 construct: BMP type II receptor (BMPR-II), extracellular domain; also called BMPR-IIECD; source: expressed and purified as described earlier [28]
T2 sequence (looked up): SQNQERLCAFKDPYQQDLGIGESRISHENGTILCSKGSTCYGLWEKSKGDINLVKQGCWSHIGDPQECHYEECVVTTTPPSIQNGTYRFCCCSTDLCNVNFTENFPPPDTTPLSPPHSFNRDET
Described as above.

The target in experiment [5] is B3. The description is as above. This is another data set of the same source.
In another experiment the target is T3, ActR-IIBECD L61A (UniProt P27040 19-137, L61A).
T3 construct: also called ActR-IIBL61A; source: E. coli OrigamiB (DE3), purified (Ni2+-IMAC, thrombin cleavage, anion exchange, RP-HPLC)
T3 sequence (looked up): B2 chain with L61A
The description is as above.

The next experiment addresses T4, ActR-IIBECD L61P (UniProt P27040 19-137, L61P).
T4 construct: also called ActR-IIBL61P; source: E. coli OrigamiB (DE3), purified (Ni2+-IMAC, thrombin cleavage, anion exchange, RP-HPLC)
T4 sequence (looked up): B2 chain with L61P
The description is as above.

Experiment [6] addresses T5, wildtype BMP-2 (bone morphogenetic protein 2), E. coli derived (UniProt P12643 283-396).
T5 construct: dimeric ligand; also called wtBMP-2; BMP-2 dimer
The experiment can be described thus: SEC; ternary complex of wildtype BMP-2 as isolated from gelfiltration (HBS700 buffer); its composition by reversed phase HPLC, peak areas divided by the extinction coefficients.

In experiment [7] the target is T6, binary complex BMP-2:BMPR-IAECD (purified) (UniProt P12643 283-396; P36894 24-152).
T6 construct: as the chain of Dm1; as the chain of Dm2; Complex formed beforehand and placed in the calorimeter cell at 7.5 uM; also called BMP-2:BMPR-IAECD complex; binary complex of BMP-2 and BMPR-IAECD; copies: 2 + 2
In words: ITC; VP-ITC, 298 K (25 C), HBS500 buffer (10 mM HEPES, 500 mM NaCl, pH 7.4); 150 uM ActR-IIBECD in the syringe, 7.5 uM binary complex BMP-2:BMPR-IAECD in the cell; one-site-binding model. On the technique in general: ITC needs no label: the signal is the heat of the interaction.

In experiment [8] the target is T5, wildtype BMP-2 (bone morphogenetic …). In words: SEC; ternary complex of wildtype BMP-2 as isolated from gelfiltration (HBS700 buffer); its composition by analytical SDS-PAGE, band intensities compared with standard mixtures of defined molar ratios. For orientation: Size exclusion chromatography separates by hydrodynamic size, large species first.
In experiment [9] the target is T7, binary complex of BMP-2 bound to immobilized BMPR-IAECD (formed on the biosensor) (UniProt P12643 283-396; P36894 24-152).
T7 construct: as the chain of Dm4; as the chain of Dm2; also called BMP-2 in complex with immobilized BMPR-IAECD; binary BMP-2:BMPR-IAECD complex; source: formed on the biosensor by perfusion of immobilized BMPR-IAECD with 200nM BMP-2; copies: 2 +
The experiment can be described thus: SPR; BMPR-IAECD immobilised; perfusion with 200 nM BMP-2 for 300 s to form the binary complex, then ActR-IIBECD as analyte at 1 to 50 uM for 120 s; apparent KD from the dose dependence of equilibrium binding, Scatchard analysis.

The target in experiment [10] is T8, binary complex BMP-2:BMPR-IAECD (UniProt P12643 283-396; P36894 24-152).
T8 construct: bone morphogenetic protein 2 (BMP-2), mature ligand, as m1; BMP type IA receptor (BMPR-IA), extracellular domain, as m25; also called BMP-2 complexed with BMPR-IAECD; BMP-2:(BMPR-IAECD)2; source: formed from the purified proteins and purified as described [58]; copies: 2 + 2
The experiment can be described thus: ITC; isothermal titration calorimetry, 25°C; who was titrated is not told.

Experiment [11] addresses T9, BMP-7 (CHO cells, R&D Systems) (UniProt P18075 293-431, biotin (biotinylated for the biosensor; site not stated)).
T9 construct: bone morphogenetic protein 7 (BMP-7), mature ligand; source: bought: R&D Systems (CHO cells)
T9 sequence (looked up): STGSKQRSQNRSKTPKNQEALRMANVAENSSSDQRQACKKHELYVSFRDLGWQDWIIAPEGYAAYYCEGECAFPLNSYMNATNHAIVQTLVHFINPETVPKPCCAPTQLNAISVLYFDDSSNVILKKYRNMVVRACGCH
The experiment can be described thus: SPR; BIACORE 2000; biotinylated ligand on a streptavidin-modified CM5 chip (about 200 RU); receptor ectodomain as analyte at 1, 2, 3, 5, 10, 20 and 50 uM; HBS500 (10 mM HEPES pH 7.4, 500 mM NaCl, 3.4 mM EDTA, 0.005% P20); apparent KD from the dose dependence of equilibrium binding.

The target of experiment [12] is T9, BMP-7 (CHO cells, R&D Systems). The experiment is described as above. This is another data set of the same source.

As for B1, the Kd was roughly 250 nM in experiment [1]; 65 nM in [2]; 230 nM in experiment [3]; 8700 nM in [4]; 60 nM in experiment [5]; 2000 nM in the experiment with ActR-IIBECD L61A. Moreover, the Kd with ActR-IIBECD L61P stood at 180000 nM.
With B2, the “stoichiometry N” value in experiment [6] is 1.97 ActR-IIBECD per 0.98 BMP-2 dimer; in [7] it was 2; in experiment [8], 2.1 ActR-IIBECD per BMP-2 dimer. Moreover, the Kd in [9] worked out at 9000 nM.
Take B3: the dH in [10] was determined as 14 kcal/mol. The Kd in experiment [11] amounted to 3600 nM; in experiment [12] it was 2800 nM.
